In paper PMC6908968 (Cell, 2019):
Where two headings read alike, the source gives them in different places.

T1: thermolysin-cleaved EBOV GP on Jurkat-GP cells (cleaved GP) (Zaire ebolavirus, Makona (GP1 core …, strain))
T1 chain 1: not shown
T1 chain 2: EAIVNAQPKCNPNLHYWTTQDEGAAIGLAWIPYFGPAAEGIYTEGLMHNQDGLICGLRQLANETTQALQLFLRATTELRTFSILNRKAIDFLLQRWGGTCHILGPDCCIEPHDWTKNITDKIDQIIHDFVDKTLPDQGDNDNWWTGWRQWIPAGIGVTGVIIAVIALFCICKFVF


How the values were obtained:
[1] = target: T2, EBOV GP ectodomain residues 1-636 (GPec) (Zaire ebolavirus, strain  …, UniProt Q05320)
[2] = target: T1, thermolysin-cleaved EBOV GP on …
[3] = target: EBOV glycoprotein (GP), Makona strain, full length mature, on Jurkat-GP cells (native GP) (Zaire ebolavirus, Makona (stand-in: …, UniProt P87666, strain))
[4] = target: T2, EBOV GP ectodomain residues 1-636 (GPec); assay: ELISA; settings: both partners purified

Binder	binding result [1]	binding result [2]	binding result [3]	binding result [4]
5.6.c3363 (antibody, V domains shown) VH: EVKLVESGGDLIQPGGSLRLSCAGSGFTFSNYAMSWVRQAPGKGLEWVSGLSGSGRNTYYADSVKGRFTISRDNSQNTLFLQMNSLRAEDTAIYYCATASVWSGYVLQYWGQGALVIVSS VL: DIQMTQSPSSLSASVGDRVTITCRASQNINDWLAWYQQKPGKAPKLLIFRASSLESGVPSRFSGSGFGTEFTLTISSLQPDDFASYYCQQYKSYPMYTFGQGTKLDIN	binds	binds	binds	
mAb 5.1.10B3 (antibody, V domains shown) VH: EVQLVESGGGLVQPGGSLRLSCAASGFTFRSYDMHWVRQATGKGLEWVSAIGTAGDTYYPGSVKGRFTISRENAKNSLYLQMNSLRAEDTAVYYCARVRFGDTAVDYWGQGTLVTVSS VL: DIQMTQSPSSLSASVGDRVTITCRASQSISSFLNWHQQKPGKAPKLLIYAASSLQSGVPSRFSGSGSGTDFTLTISSLQPEDFAIYYCQQSYISPFTFGPGTKVDIK				binds
mAb 2.1.6C11 (antibody, V domains shown) VH: GAEVKKPGASVKVSCKASGYTFTTYDINWVRQATGQGLEWMGWMNPNSGNTGYAQKFQGRVTMTRNTSISTAYMELRSLRSEDTAVYYCAPGVTFWGQGTLVTVSS VL: PSSLSAPVGDRVTITCRASQGISNSLAWFQQKPGKAPKSLIYAASSLQSGVPSNFSGSGSGTDFTLTISSLQPEDFATYYCQQYNSYPWTFGQGTKVEIK				binds
